In the supplement of paper PMC7125110:
± gives the standard error. For part of these data: Variants at the floor of the assay were thinned out.

B1: glmS ribozyme (parent)
chain: AUAAAAGCGCCAGAACUACAGAAAUGUAGUUGACGAGGAGGAGGUUUAUCGAAUUUUCGGCGGAUGCCUCCAAA

Assays:
Details in all cases: with glucosamine-6-phosphate
glucosamine-6-phosphate [1] = variants of: B1; experiment: kcat; higher = faster cleavage; RNA array
How it was run: (§1)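 Over ~14 h at 37 °C, tiles were imaged as glucosamine-6-phosphate (40 μM to 10 mM) in HEPES/KCl/Mg(OAc)2 buffer flowed across sequenced MiSeq chips. The chips carried barcoded ribozyme variants transcribed in situ by E. coli RNA polymerase and tracked with a hybridised Cy3 probe. After normalisation to baseline and to non-cleaving reference variants, one- or two-exponential decay fits of per-tile medians gave kobs. kcat and KM followed from weighted Michaelis–Menten fits across concentrations.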

glucosamine-6-phosphate [2] = variants of: B1; experiment: self-cleavage kobs at 2500 uM GlcN6P; higher = faster cleavage; RNA array
How it was run: as §1

glucosamine-6-phosphate [3] = variants of: B1; experiment: self-cleavage kobs at 10000 uM GlcN6P; higher = faster cleavage; RNA array
How it was run: as §1

glucosamine-6-phosphate [4] = variants of: B1; experiment: KM; higher = weaker cofactor use; RNA array
How it was run: as §1

glucosamine-6-phosphate [5] = variants of: B1; experiment: self-cleavage kobs at 40 uM GlcN6P; higher = faster cleavage; RNA array
How it was run: as §1

glucosamine-6-phosphate [6] = variants of: B1; experiment: self-cleavage kobs at 160 uM GlcN6P; higher = faster cleavage; RNA array
How it was run: as §1

glucosamine-6-phosphate [7] = variants of: B1; experiment: self-cleavage kobs at 640 uM GlcN6P; higher = faster cleavage; RNA array
How it was run: as §1

Row | Variant | kcat (glucosamine-6-phosphate [1]) [s⁻¹] | self-cleavage kobs at 2500 uM GlcN6P (glucosamine-6-phosphate [2]) [s⁻¹] | self-cleavage kobs at 10000 uM GlcN6P (glucosamine-6-phosphate [3]) [s⁻¹] | KM (glucosamine-6-phosphate [4]) [µM] | self-cleavage kobs at 40 uM GlcN6P (glucosamine-6-phosphate [5]) [s⁻¹] | self-cleavage kobs at 160 uM GlcN6P (glucosamine-6-phosphate [6]) [s⁻¹] | self-cleavage kobs at 640 uM GlcN6P (glucosamine-6-phosphate [7]) [s⁻¹]
1 | C11A G32A | 1.09e-05 ± 7.8e-07 | – | – | – | – | – | –
2 | G13A U56C | 0.000422 ± 7.9e-06 | 8.37e-05 ± 2e-05 | 0.00021 ± 3.7e-05 | – | – | – | –
3 | A39C U55A | 0.00799 ± 0.0028 | 0.00295 ± 0.00058 | 0.00755 ± 0.0012 | 2790 ± 1400 | 0.000201 ± 4.2e-05 | 0.000429 ± 7.8e-05 | 0.00143 ± 0.00023
4 | U31C G32A C58A U65G | 4.59e-05 ± 1e-06 | – | 3.72e-05 ± 1.4e-05 | 2320 ± 190 | – | – | –
5 | U45G U55G | 0.00804 ± 0.002 | 0.00365 ± 0.00057 | 0.00624 ± 0.00057 | 2970 ± 1000 | 0.000146 ± 1.5e-05 | 0.000304 ± 4.5e-05 | 0.00148 ± 0.00024
6 | G13A C16A | 0.000316 ± 9.2e-06 | 4.78e-05 ± 7.4e-06 | 0.000132 ± 1.9e-05 | – | – | – | –
7 | G13A G66U | 1.72e-05 ± 6.7e-06 | – | – | – | < 1e-05 | – | –
8 | G13A G66A | 0.000323 ± 2.9e-05 | 0.000129 ± 3.2e-05 | 0.000241 ± 4.7e-05 | 3550 ± 700 | – | – | –
9 | U47C C58U | 0.000109 ± 7.3e-06 | – | 4.92e-05 ± 8.1e-06 | – | – | – | –
10 | G37C C70G | 1.47e-05 ± 4.3e-06 | – | – | – | – | – | –
11 | G13A G21U G37U C70U | < 1e-05 | < 1e-05 | – | – | – | – | –
12 | A12C G29U U47G | 0.00126 ± 0.00043 | 0.000697 ± 0.00018 | 0.000831 ± 0.00019 | 4280 ± 2100 | – | – | 0.000151 ± 3.1e-05
13 | C10U C70G | 2.35e-05 ± 4.9e-06 | 2.76e-05 ± 1.3e-05 | – | – | – | – | –
14 | A15G U55C | 0.0256 ± 0.0046 | 0.0125 ± 0.005 | 0.0242 ± 0.0051 | 1870 ± 410 | 0.000564 ± 7.9e-05 | 0.00212 ± 0.00033 | 0.0055 ± 0.0011
15 | G44U U65G | 0.000347 ± 2.4e-05 | 5.71e-05 ± 1.8e-05 | 0.000152 ± 2.6e-05 | – | – | – | –
16 | G29C C67A | 0.000293 ± 7.2e-05 | 0.000163 ± 3.2e-05 | 0.000363 ± 5.2e-05 | – | – | 5.79e-05 ± 1.3e-05 | 0.000128 ± 1.9e-05
17 | G29U A53U | 0.00357 ± 0.00055 | 0.00252 ± 0.00027 | 0.00266 ± 0.00038 | 1600 ± 360 | 8.45e-05 ± 1e-05 | 0.000275 ± 4.9e-05 | 0.00114 ± 0.00013
18 | G32C C58G | 8.83e-05 ± 1.4e-05 | 4.79e-05 ± 7.8e-06 | 6.81e-05 ± 9.4e-06 | 2580 ± 1100 | – | – | –
19 | U30A G59A | 3.04e-05 ± 2.1e-06 | – | 2.5e-05 ± 1.2e-05 | 2080 ± 490 | < 1e-05 | – | –
